We go through 21 sequences from the DeepSol protein solubility set.

This series is described as follows: soluble on expression in E. coli; label from the status in PepcDB or PDB records.
In the case of “MDYVDYSNPDNPVITDEGERLAKIHSEADLLVAQCLKRGIWDNLDPAELAGVVSMCTFENRRETGGEAQAVTEAMADSMNSVERIWGELVEDERRHRLPITRQPEAGFATAIHQWASGAPLGYCMAAAAENGAELTPGDFVRWCRQVIDLLEQVAKTAYFDETTRNARQAIDAIRRGVVAIGSLEHHHHHH”, the “soluble on expression in E. coli” value was “soluble”.

Turning to “MKFGNFLLTYQPPELSQTEVMKRLVNLGKASEGCGFDTVWLLEHHFTEFGLLGNPYVAAAHLLGATETLNVGTAAIVLPTAHPVRQAEDVNLLDQMSKGRFRFGICRGLYDKDFRVFGTDMDNSRALMDCWYDLMKEGFNEGYIAADNEHIKFPKIQLNPSAYTQGGAPVYVVAESASTTEWAAERGLPMILSWIINTHEKKAQLDLYNEVATEHGYDVTKIDHCLSYITSVDHDSNRAKDICRNFLGHWYDSYVNATKIFDDSDQTKGYDFNKGQWRDFVLKGHKDTNRRIDYSYEINPVGTPEECIAIIQQDIDATGIDNICCGFEANGSEEEIIASMKLFQSDVMPYLKEKQ”, the “soluble on expression in E. coli” value is given as “soluble”.

Take “MQSWYLLYCKRGQLQRAQEHLERQAVNCLAPMITLEKIVRGKRTAVSEPLFPNYLFVEFDPEVIHTTTISATRGVSHFVRFGASPAIVPSAVIHQLSVYKPKDIVDPAPPYPGDKVIITEGAFEGFQAIFTEPDGEARSMLLLNLINKEIKHSVKNTEFRKL”: the “soluble on expression in E. coli” value is on record as “not soluble”.

Consider “MNYPAEPFRIKSVETVSMISRDERVKKMQEAGYNTFLLNSKDIYIDLLTDSGTNAMSDKQWAGMMIGDEAYAGSENFYHLEKTVKELFGFKHIVPTHQGRGAENLLSQLAIKPGQYVAGNMYFTTTRFHQEKNGATFVDIVRDEAHDASLNLPFKGDIDLNKLATLIKEKGAENIAYICLAVTVNLAGGQPVSMANMRAVHEMASTYGIKIFYDATRCVENAYFIKEQEAGYENVSIKDIVHEMFSYADGCTMSGKKDCLVNIGGFLCMNDEEMFSAAKELVVVYEGMPSYGGLAGRDMEAMAIGLREAMQYEYIEHRVKQVRYLGDKLREAGVPIVEPTGGHAVFLDARRFCPHLTQDQFPAQSLAASIYMETGVRSMERGIVSAGRSKETGENHRPKLETVRLTIPRRVYTYAHMDVVADGIIKLYQHKEDIRGLTFVYEPKQLRFFTARFDFI”, for which the “soluble on expression in E. coli” value was “soluble”.

“MADESETAVKPPAPPLPQMMEGNGNGHEHCSDCENEEDNSYNRGGLSPANDTGAKKKKKKQKKKKEKGSETDSAQDQPVKMNSLPAERIQEIQKAIELFSVGQGPAKTMEEASKRSYQFWDTQPVPKLGEVVNTHGPVEPDKDNIRQEPYTLPQGFTWDALDLGDRGVLKELYTLLNENYVEDDDNMFRFDYSPEFLLWALRPPGWLPQWHCGVRVVSSRKLVGFISAIPANIHIYDTEKKMVEINFLCVHKKLRSKRVAPVLIREITRRVHLEGIFQAVYTAGVVLPKPVGTCRYWHRSLNPRKLIEVKFSHLSRNMTMQRTMKLYRLPETPKTAGLRPMETKDIPVVHQLLTRYLKQFHLTPVMSQEEVEHWFYPQENIIDTFVVENANGEVTDFLSFYTLPSTIMNHPTHKSLKAAYSFYNVHTQTPLLDLMSDALVLAKMKGFDVFNALDLMENKTFLEKLKFGIGDGNLQYYLYNWKCPSMGAEKVGIVLQ”: the “soluble on expression in E. coli” value was “soluble”.

As for “SQIFASDGKTQLARIVPPDGNRTEVPIDKIPEVTRNAVLAAEDREFYTNSGFSFTGFGRAILGQLTGDASAGGGSTITQQYVKNMVVGNDYSYMRKAKELVYSVKMANEWSKDEVLGAYLNTIYFGRNAYGIDAAAHAYFGVPASELNVGQSAMLAATIQRPSQLDPWSNR”, the “soluble on expression in E. coli” value is recorded as “not soluble”.

On to “SPWSQDRVEHLYEQVAAENSVDLLKKGQFQGTPDGSSVVFIDDIKDSTLSNVFVAQMRPRDSVLPSVMFSSSGEVKELSDGRQVITMQEGTRYEGVPTRVEYMITKFDEYEGVIGQREVKQKGRDWEAYPTADLIGHPDPEAQAELQWR”, for which the “soluble on expression in E. coli” value is listed as “not soluble”.

As to “MSGSIARCETWPFPLHFSLLLLLLDFPACGNKGGLVIFIAHKFSMLRLSMHRASLPLWVGARLLSSTAVLRLEQSAEERTREEELRQRVQQKYRGMQIPEMTHHEYGHFSTTGISASAAHQAARSAGVEGYPGFGGGAFQNRGRVDWLLLLTGCTLVYLSFKILFRQFTRGVNGLELPLWTASIELQAKHILFAVQFQQSEQDQIKKDFEAVRQTNPFVDFFEWVRSRRPEFCCGRKYGADYVMHTLVSCLRSGDGTQLATLARTLQQSMTRKNGDSLQRVDDFVEQLQSAGYLFQGIRGVGSSGVHTPEHSPQPIYTPLREVSQCGVQESDLINALDVKNGEAHSSTPFREAK”, the “soluble on expression in E. coli” value is on record as “soluble”.

In the case of “LPLCDSLIIWLQTFKTASPCQDVKQLTNGVTMAQVLHQIDVAWFSESWLSRIKDDVGDNWRIKASNLKKVLHGITSYYHEFLGQQISEELIPDLNQITECADPVELGRLLQLILGCAVNCEKKQEHIKNIMTLEESVQHVVMTAIQELMSK”, the “soluble on expression in E. coli” value is reported as “soluble”.

Turning to “MLGAMSLRLSEFRETNLLDKILFGVLSPHEIRQLAKVTVVRGDLYEADGTPVSGGLRDPHFGAIEPGERCPVCGNSREECPGHFGKIELARPVLIPHYTDYVYKILQATCRVCGRITLPEEKIKYYRLIFRRLRGKWPQLAKTFATMVVKEAAQATQCPHCGKPQYKVVYIRPFHFYEKKPEGDVKLTPSEIRERLEKTGSEIEILGVHPERSRPEWMVATVLIVPPLAVRPSITLETGLRSEDDLTHALAEIVRQNEKLRNVIVTNAPETLIEENWMVLQEMVAAYIDNELPGARRLTHRRKRYLKTLAQRLKGKDGRIRGNLSGKRVNYSARTVISPDPYISINEVGVPEEIAKTLTIAMRVTPYNLEEARRYVLNGPDKWPGALFVYKASERKKYDLRFFKDYEKLAESLEPGDVVERHLINGDIVLFNRQPSLHRMSIMGHIVRVMPGKTFRLNLLVCPPYNADFDGDEMNLHVPRLEEAQAEAREIMLVEKHILTPRYGGPIIGGRQDYVSGAYLLTVKTRLFTKEEVERLLSVAGYKGDLPEPAILKPEPLWTGKQLASIFLPEDLSFKGKSKTNAGDLACSDELCLHDSYIVITNGKLLEGVLDKKAIGAEEPNNLLHIIALEYGNSKARQLLDSFYRMFIRMLELRGLTISLHDIDLPDRAKQEIEELIREYKGRVYSIIEEYRKGTLEPIPGRSLEESLEIKIMEVLDELRKRVQEVASNNLDPFNDVFVMARTGARGSDVNISQMAAMLGQQAVRGRRIRRGLRNRVLAHFKENDIEPEAWGFVRSSFRKGLRPTEVFFHAAAGREGLVDTAVKTSQSGYMQRRLINALQDIVVTYDGTVRDLYGNLIQLKYGEDGVDPMKTYHGKPVDVKRIIQRVKASKAETV”, the “soluble on expression in E. coli” value is reported as “soluble”.

On to “MILINKRAEKQDYQTILAIWEKSVIVTHDFLTAEDRQFYKEQIPLFLDNVELFLWFAGEEVIGFSGTSERELDMLFLDPVATGNGYGSQILGWLIENKRINLVDVNEQNENATRFYLKHGFVVSSRSDLDGFGKPYPILQLQLKERVNGV”, for which the “soluble on expression in E. coli” value is recorded as “soluble”.

As for “MSLIYQTPDALDLQLDRIPSLPPPRRVVLTTPTHFDVEYVINPHMSENVGAVNTDVAWQQWKALRAAYTALDHTPVLVNGQSGLPDMVFCANQTLPFYDPASDSKGVVLSRMHSEQRADEVPYYARFFEEEGYAVDTLPEDLDADFEGMGDALWHPGHHLLWGGYGYRTSPEAYEALGDLLDVPIVALRLVDPDYYHLDTCLCPLDARHALVAPEAFDDAGRALIDALFETVIEVPDHEARHQFACNAHCPDGAHVLIQEGCEGTNAQLRNHDFVPVELDTSEFMKSGGSVFCMKQMIWEGHHHHHH”, the “soluble on expression in E. coli” value was “soluble”.

For the sequence “MSLAVTLADVARRAGVSLATASRVLNGSARAVSDEMRARVTAAARELHYVPNAHAQALARAATQTVGVIVHDVSDPYFAEILRGIQRSAADAGRLMIVCNTFRDPQRELEYVHLLQKQRVEAIILAGSGLDDRAYCRSMTERLDSFASMGGRVAVIGRHNIAADAVVPDNVGGARALAHYLLDLGHRSFGIIDGPALLTTSRDRRSGFVQALQAGGITLPPDAIIPGDFTRDGGAQAAIRLLERFPSITAIFALNDVMAIGALAALRERGITVPDQMSIVGFDDIPIAADVTPALTTMRVPMSQLGSEALALALSAEDTLRTIHLPTEMIVRQSTAEGHHHHHH”, the “soluble on expression in E. coli” value is on record as “soluble”.

For “MGDTKVETISRLAQWRIENFGPCSFKKSDPFKVGIWNWHLSIERNRYLSVRLFPELSRVSKEQPPVAKFVLRVSNVGPNRRFYISPVYEKLLRTTDDCVWHVDSSFHGRFTIDVEFLDLKICPVNGGEASPVWPTDATMQSISTQTTLKCLSRMLEESILTDVIIHTADGTLSAHKAILSASSTVFKSMFHHDLMEKESSTIHIDDMSRESCMALLSYLYGNITQEEFWKHRLALLGAANKYDITDLKAACEESLMEDINSSNVLERLQEAWLYQLEKLKKGCLMYLFDFGKIYDVREEISSFFRQADRELMLEMFQEVLSVWKPV”, the “soluble on expression in E. coli” value is on record as “soluble”.

For the sequence “MRYCQFEGCSNTTEKGAYCSEHARKSRKKKKPINVYHHDNKSFYRTKEWQDVADFVYEREGGCCQRCGRFVFGRQAHRHHVIPIKKNEMLKLDPNNIRLLCPKCHVIEENEADEKKVFPSYFKK”, the “soluble on expression in E. coli” value was “not soluble”.

As for “MFVMIIQGQVLGGYPRSRYVRRALRRLEQGEISAVELMGVLNQASSAVIGAQVSQGFPYVVDGMLDWHDIFRPFAEAWRNVTPTGLLRYFDNNFFYRIPLFTGEPEPTDPVLAPRVLSYSQVAEPAKLKVVVPGPVTFTLMSRNESGISDEELAEAIANLLADEVEKAVKAGAGFVQVDEPILSEPKATRDHALLAAELAGVIASRSGSAETMLSVYFYPPKPEVYEALLEARVDYLMVDLVAAGSKGLEVITGKGAGEGLALGVIDARSIYSESLEKVEAPVRRIVESVKPEKIILTTSTWLDLIPYRYALRKTALLGRYTYALAEKLGAQIAVAGGEMAGDPLEHHHHHH”, the “soluble on expression in E. coli” value is recorded as “not soluble”.

“MSLSSVNCIEQTTEWTACSKSCGMGFSTRVTNRNRQCEMLKQTRLCMVRPCEQEPEQPTDKKGKKCLRTKKSLKAIHLQFKNCTSLHTYKPRFCGVCSDGRCCTPHNTKTIQAEFQCSPGQIVKKPVMVIGTCTCHTNCPKNNEAFLQELELKTTRGKMEGHHHHHH”: the “soluble on expression in E. coli” value is given as “not soluble”.

On to “MVRYWIYLLSDDVASHYRHRAEKIVELLREHQYAKAPLKAICRKQVEFITERLSFSRLELGLKQYFAGRVGKNLERNMFVLQNDAGEEALLVVQKRRLLLVADSAPLASDIGRALARLSPTFLAVDADFVDYYWLSAPRQGRKFA”, for which the “soluble on expression in E. coli” value is listed as “not soluble”.

With “MIRITLHTYCISELFSGDLELFASKLEETSQNQKTYSTPRSSDFRAILPTYSTPRSSDFGAILPIHSTTRLSNLSSGHSMTLLDPLVEYHFATLPDNTRPFTLPSYSTPWSSIITHHHQHHSTGHSITSSQSTQIRTQPDKLSTRKRRGEDKVFGSGLDLHRIKKPISAHYLSMGRAIRLLARLLSFYFVLYK”, the “soluble on expression in E. coli” value is “soluble”.

“LDPSGKSVIYTKSLAFEKALVRPEKEVKKVHTALDALNSSLADGRGVDFAYMMSIYQVESQMTLIEELGDLIMPDPEKYLNGELTYVSRQDFLSGDVVTKLEVVDLFVKQDNQDFNWSHYAGLLEAIKPARITLADIDYRIGSRWIPLAVYGKFAQETFMGKAYELSDQEVATVLEVSPIDGVITYQSKFAYTYSNATDRSLGVPASRYDSGRKIFENLLNSNQPTITKQVVEGDKKKNVTDVEKTTVLRAKETHLQELFQGFVAKYPEVQQMIEDTYNRLYNRTVSKSYDGSHLTIDGLAQNISLRPHQ”: the “soluble on expression in E. coli” value is listed as “not soluble”.

Turning to “MGHHHHHHSHGSYANEISSSIIINRPAERLFDLWRKPETLPILMGHFASIEILNHTDSNWRINTPIGSLIEWQARIIDEKPGEYIHWRSLEGARVPNEGRLSFQPAASEAGTAVTLTIRYNPPGGLIGKKIGQMFDMFSRDMLTKTLYRFKKLAEDER”, the “soluble on expression in E. coli” value is on record as “soluble”.
